One block for each binder: values may come before it.
B2: BMP-6 subunit beginning with amino acid #375 (CHO-produced) (ligand)
chain: SASSRRRQQSRNRSTQSQDVARVSSASDYNSSELKTACRKHELYVSFQDLGWQDWIIAPKGYAANYCDGECSFPLNAHMNATNHAIVQTLVHLMNPEYVPKPCCAPTKLNAISVLYFDDNSNVILKKYRNMVVRACGCH
notes: Single subunit

Columns and labels:
[1] = target: B2; assay: protein sequencing of purified CHO BMP-2/6 heterodimer subunits
Experimental: (§1) The BMP-2/6 heterodimer subunits are analyzed on a protein sequenator.

[2] = target: T1, BMP-2 subunit beginning with amino acid #249 (CHO-produced) (human, UniProt P12643 249-396); assay: as above
T1 construct: Single subunit; also called BMP-2 subunit #249 Ser-Lev-His
T1 sequence: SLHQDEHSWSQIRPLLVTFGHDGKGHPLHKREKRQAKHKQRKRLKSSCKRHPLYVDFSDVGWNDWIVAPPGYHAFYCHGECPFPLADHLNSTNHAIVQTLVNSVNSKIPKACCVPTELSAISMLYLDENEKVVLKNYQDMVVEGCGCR
Experimental: as §1

[3] = target: the molecule itself; assay: purification of BMP-2/6 from CHO 12C07 medium, gel analysis
Experimental: After the completion of sample loading, the column was washed with 10 bed volumes of the equilibration buffer. Bound BMP-2/7 or BMP-2/6 heterodimers were eluted with 5 bed volumes of 100 mM potassium phosphate, 6M urea, pH 7.4. This eluate was loaded directly onto a Vydac C_4 reverse-phase HPLC column equilibrated in water –0.1% TFA. BMP-2/7 or BMP-2/6 heterodimers were eluted with a gradient of 30-50% acetonitrile in water—0.1% trifluoroacetic acid.
Fractions containing BMPs are identified by SDS-PAGE in the presence or absence of reductant. The identity of the BMPs with respect to the heterodimers vs. homodimers is determined by 2D-PAGE (+/−reductant). Fractions with heterodimers gave bands which reduce to two spots. Bands from homodimer fractions reduce to a single spot for each BMP species.

[4] = target: the molecule itself; assay: refolding of E. coli monomer, SDS-PAGE with and without reduction

binding result [1]: binds
B1: BMP-2 subunit beginning with amino acid #283 (CHO-produced) (ligand)
chain: QAKHKQRKRLKSSCKRHPLYVDFSDVGWNDWIVAPPGYHAFYCHGECPFPLADHLNSTNHAIVQTLVNSVNSKIPKACCVPTELSAISMLYLDENEKVVLKNYQDMVVEGCGCR
notes: also called mature BMP-2 subunit

Binder: B2
binding result [2]: binds
binding result [3]: binds

B3: E. coli BMP-2 monomer (mature portion of BMP-2 from plasmid pALBP2-781) (ligand)
chain: MQAKHKQRKRLKSSCKRHPLYVDFSDVGWNDWIVAPPGYHAFYCHGECPFPLADHLNSTNHAIVQTLVNSVNSKIPKACCVPTELSAISMLYLDENEKVVLKNYQDMVVEGCGCR
binding result [4]: binds
